Where no end group is shown, it is not given here.
B1: aSyn (61–95) BiFC fusion: aSyn residues 61–95, 17-residue linker, N-terminal or C-terminal fragment of Venus (domain or fragment)
chain: not shown
notes: alpha-synuclein (aSyn), residues 61-95, the non-amyloid-B component (NAC) region, 35 amino acids; 17-amino acid linker between the protein of interest and the Venus fragment; One molecule stands for both constructs, aSVN (Venus 1-173) and aSVC (Venus 155-239); the label in each row tells which was used; A start methionine and residues coded by the restriction sites are not described; also called …
B2: IAPP BiFC fusion: human IAPP, 17-residue linker, N-terminal or C-terminal fragment of Venus (peptide)
chain: KCNTATCATQRLANFLVHSSNNFGAILSSTNVGSNTYRPACKIPNDLKQKVMNH
modifications: cysteine pairing not given here; also: fused to N- or C-terminal Venus fragment, not in chain
notes: human islet amyloid polypeptide (IAPP), the 37-amino acid long peptide cut from proIAPP; 17-amino acid linker between the protein of interest and the Venus fragment; One molecule stands for both constructs, IVN (Venus 1-173) and IVC (Venus 155-239); the label in each row tells which was used; a start methionine is not described; also called IVN; IVC; source: HEK293, transfected (pcDNA3.1 zeo+), …

Target: the molecule itself
Assay: split reporter (BiFC, NanoBiT); BiFC with split Venus in transfected HEK293 cells; percent of fluorescent cells by flow cytometry (Accuri C6 plus) 24 h after transfection

| Protein | percent of cells with a fluorescent BiFC signal [%] |
| --- | --- |
| B1 | 29.3 |
| B2 | 19.7 |
